This note sets out measurements from paper PMC314469, “Protein Interaction Networks by Proteome Peptide Scanning” (PLoS Biology, 2004).

The target in assay [1] is T1, amphyphisin SH3 (AMPH_HUMAN), P49418.
T1 chain: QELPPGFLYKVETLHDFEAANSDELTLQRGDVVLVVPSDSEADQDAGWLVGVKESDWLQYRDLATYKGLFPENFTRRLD
Description: SPOT array.

In assay [2] the target is endophilin SH3 (SH3G2_HUMAN), Q99962. Description: SPOT array.

As for LGPVPVRPPPGPEL [Q9Y5L9 821-835], the values for the normalised SPOT signal, Boehringer light units (BLU); mean over the file's lines of this peptide in assay [1] and in assay [2] were 33.4 and 81.8, respectively.
Turning to LLDTIKRPALQGLS [Q9P2D8 4-17], the figures for the normalised SPOT signal, Boehringer light units (BLU); mean over the file's lines of this peptide in assay [1] and in assay [2] were 41.8 and 47.1, respectively.
In the same order, the values of LKVQLKRPKDANRP [Q9NR84 149-162] are 28.8 and 69.
In the same order, the values of LHGRPYRPPSPPPP [O75593 148-162] are 218 and 246.
The corresponding values for LKGIFTRPSKLTRK [P30622 114-127] are 121 and 192.
With LLSWIKRPSQRALR [Q9P145 28-41], the normalised SPOT signal, Boehringer light units (BLU); mean over the file's lines of this peptide was 28.6 in assay [1] and 568 in assay [2].
LIQELRRPKYSIYF [Q15715 82-95]: the values for the normalised SPOT signal, Boehringer light units (BLU); mean over the file's lines of this peptide in assay [1] and in assay [2] were 46.5 and 169, respectively.
In the same order, the values of LHLVIRRPLETHPG [Q9H6Y5 142-155] are 49.4 and 596.
The corresponding values for APPELRRPSHLHTS [Q8WU02 149-162] are 33.1 and 145.
In the same order, the values of LGLRLSRPYRLAAG [O14927 499-512] are 1650 and 315.
Turning to LLEPPERPYRDREP [Q9HCM7 689-702], the values for the normalised SPOT signal, Boehringer light units (BLU); mean over the file's lines of this peptide in assay [1] and in assay [2] were 188 and 80.4, respectively.
In the same order, the values of LLEQILRPSKFLTY [Q9P0V3 740-753] are 29.9 and 6.9.
The corresponding values for LGLSFRRPNVITLL [Q9ULA1 146-159] are 38.4 and 300.
The corresponding values for LKAPPARPVKGAYR [Q99760 384-397] are 238 and 3650.
LIRTFQRPDRVELM [Q9UMF0 113-126]: the values for the normalised SPOT signal, Boehringer light units (BLU); mean over the file's lines of this peptide in assay [1] and in assay [2] were 6100 and 224, respectively.
The corresponding values for LHVQLNRPNKRNAM [Q13011 68-81] are 193 and 128.
Turning to LHESFPRPKRVSKD [P42568 55-68], the normalised SPOT signal, Boehringer light units (BLU); mean over the file's lines of this peptide in assay [1] was determined as 3510; in assay [2], 391.
For the molecule LGLLFRRPEALQVG [Q13290 172-185], the results for the normalised SPOT signal, Boehringer light units (BLU); mean over the file's lines of this peptide in assay [1] and in assay [2] were 12.2 and 61.1, respectively.
In the same order, the values of LIRFLPRPIRQQLL [Q12789 943-956] are 1740 and 3730.
LILPPPRPPLAVTS [O60241 813-827]: the normalised SPOT signal, Boehringer light units (BLU); mean over the file's lines of this peptide in assay [1] is 1060; in assay [2] it was 3500.
For LGQKPQRPRRPASP [P07360 19-32], the values for the normalised SPOT signal, Boehringer light units (BLU); mean over the file's lines of this peptide in assay [1] and in assay [2] were 16800 and 34600, respectively.
The corresponding values for LGPVPHRPPFEPGS [P54259 848-862] are 65.2 and 41.8.
In the same order, the values of APPLPVRPPKTSPG [Q96FN5 451-465] are 4490 and 2280.
The corresponding values for LGLPPGKPPSSSPL [Q9H7S9 349-363] are 23.4 and 45.5.
As to LGRLPSRPPLPGSG [Q9Y570 9-23], the normalised SPOT signal, Boehringer light units (BLU); mean over the file's lines of this peptide in assay [1] was found to be 269; in assay [2], 14800.
Consider LKEILKRPVDPIRA [O43630 494-507], for which the values for the normalised SPOT signal, Boehringer light units (BLU); mean over the file's lines of this peptide in assay [1] and in assay [2] were 5.8 and 55.3, respectively.
In the same order, the values of LKVWPPRPGRWPSF [Q9NQQ2 431-444] are 2610 and 1090.
The corresponding values for LGLELGRPVRFLYE [P13942 112-125] are 218 and 245.
